Publication PMC5071168

How the values were obtained:
[1] = target: LvTIM-Cys47Ala (Litopenaeus vannamei)
[2] = target: triosephosphate isomerase from Litopenaeus vannamei (LvTIM), wild type (Litopenaeus vannamei); test: SEC

Row | catalytic efficiency (kcat/Km) of LvTIM-Cys47Ala, similar to wild-type LvTIM [1] | stoichiometry N [2] | Substance
1 | 2.33e+06 M⁻¹ s⁻¹ | – | LvTIM-Cys47Ala (enzyme)
2 | – | 2 | triosephosphate isomerase from Litopenaeus vannamei (LvTIM), wild type (enzyme)
